The values that follow come from US20040009172A1, “Use of anti-TNFalpha antibodies and another drug” (priority 2002, published 2004).

The subject of this series is patients with rheumatoid arthritis (RA). As to the kind of experiment: Multicenter, randomized, double-blind, placebo-controlled study of D2E7 in RA patients: safety (adverse events). It counts as in vivo, human. As for the experimental part:
A study was designed and conducted to investigate the safety and efficacy of D2E7 40 mg administered every other week to patients with RA whose disease was not adequately treated with their current anti-rheumatic therapies (including accepted DMARDs, NSAIDs, or steroids); and was a multicenter, randomized, double-blind, placebo-controlled study in which D2E7 was subcutaneously (sc) administered every other week for up to 24 weeks at a dosage of 40 mg to patients with rheumatoid arthritis (RA) whose disease was not adequately treated with their current anti-rheumatic therapies. Anti-rheumatic therapies permitted for use during the study included accepted disease-modifying anti-rheumatic drugs (DMARDs), non-steroidal anti-inflammatory drugs (NSAIDs), or steroids. Despite using anti-rheumatic therapies, patients must have had active disease documented at both the screening and baseline visits. Doses of DMARDs, as well as concomitant prednisone (<10 mg daily) and NSAIDs, were required to be stable for at least 28 days prior to screening. Additionally, patients using azathioprine and/or cyclosporine discontinued these therapies and underwent a 28-day washout period before screening. At the baseline visit, patients were randomized to D2E7 or placebo and this signified the start of the 24-week placebo-controlled period. Patients were examined at Weeks 2, 4, 8, 12, 16, 20 and 24 of the study.
D2E7 was supplied in 2-mL glass vials (the concentration of D2E7 in each vial was 25 mg/mL (ie, 40 mg/1.6 mL)), each containing 40 mg D2E7/1.6 mL solution for injection. D2E7 was manufactured and supplied by Ebewe Arzneimittel GmbH, in Unterach, Austria. McKesson, FIBOC Biosciences, in Rockville, Md., USA, packaged, labeled, stored and distributed D2E7 to the investigators at, each site for this study. […]
Adverse events were summarized by frequency, percentage, as well as the rate per 100 patient-years. […] All other efficacy variables were summarized descriptively (statistical characteristics, frequencies, percentages, confidence intervals) and analyzed by exploratory two-sided statistical tests. […]

The mark [1] stands for this setting: added to existing DMARD therapies.

Take “D2E7: recombinant, neutralizing human anti-hTNFα antibody; VL region SEQ ID NO: 1, VH region SEQ ID NO: 2”: the Safety result (40 mg, alone or in combination with other DMARDs) is listed as “safe”. Also, under setting [1], the “Incidence or profile of adverse events” value was “not associated with any major changes in the incidence or profile of adverse events” and the Tolerability result was “generally well-tolerated”.
